Source: US20170165321A1, “METHOD FOR REDUCING AND/OR DELAYING PATHOLOGICAL EFFECTS OF HUMAN IMMUNODEFICIENCY VIRUS I (HIV) OR FOR REDUCING THE RISK OF DEVELOPING ACQUIRED IMMUNODEFICIENCY SYNDROME (AIDS)” (Bionor Immuno AS, priority 2014, published 2017)
Where no end group is shown, it is not given here.

Tests used:
[1] = test system: patients infected with HIV-1; test: Phase II randomized placebo-controlled study CT-BI Vacc-4x 2007/1; format: in vivo, human
Protocol: The Phase II Study CT-BI Vacc-4x 2007/1 (EudraCT Number 2007-006302-13) was performed in US and Europe (UK, Germany, Spain and Italy). The study was a randomized, double-blind, multicenter, immunogenicity study of Vacc-4x versus placebo in patients infected with HIV-1 who have maintained an adequate response to ART. The primary objective was to evaluate the effect of Vacc-4x immunizations versus placebo on CD4 counts, T-cell function (ELISPOT, T-cell proliferative responses and intracellular cytokine staining) and the response to interruption of ART. The necessity to resume ART between the interruption of ART at Week 28 and the end of the study at Week 52, due to decreased CD4 count or increased viral loads, was monitored as one of the primary efficacy endpoints.

HIV positive subjects = test: Open-label re-boost follow-up study CTN BI Vacc-4x/2009/1; format: in vivo, human
Description: CTN BI Vacc-4x/2009/1 was an open-label follow-up of study CTN B-HIV-2/2001 to determine whether a re-boost with Vacc-4x could reactivate or increase the immune response obtained during the immunization performed in the CTN B-HIV-2/2001 study. The secondary objectives were to evaluate: the in vivo immunogenicity of Vacc-4x by evaluation of DTH and to compare the DTH response to DTH in the initial study; the effect of Vacc-4x on CD4 counts, CD8 counts and HIV viral RNA; and the safety and tolerability of Vacc-4x. All 26 subjects included in the study received two booster administrations of Vacc-4x.

[2] = 26 subjects, two booster administrations

B1: Vacc-4x: four synthetic peptides (Vacc-10, Vacc-11, Vacc-12, Vacc-13 acetate) corresponding to conserved domains on HIV-1 p24; SEQ ID NOs 3, 6, 11, 18 (peptide)
chain 1: APTRAKRRVVQREKRAV
chain 2: DRPEGIEEEGGERDR
chain 3: QLLLNGSLAEEEIVI
chain 4: GGAKRRVVGGAKRRVVGGQREKR
modifications: also: acetate salts
percentage change in CD4 count between Week 28 and last CD4 assessment before resumption of ART, versus placebo ([1]; ITT analysis population): no effect compared with placebo
proportion of subjects requiring resumption of ART after ART cessation at Week 28, versus placebo ([1]; ITT analysis population): did not reduce
time to restarting ART versus placebo ([1]; ITT analysis population): similar
change in HIV-1 RNA from Week 28 through to Week 52 versus placebo ([1]; after ART cessation): statistically significant difference between groups in favour of Vacc-4x
safety concern ([1]; in vivo): No safety concern
Week 52 (LOCF) viral load versus placebo ([1]; post-hoc analysis): statistically significantly lower
average viral load versus placebo ([1]; subgroup who remained off ART until Week 52): lower in the Vacc-4x-treated subjects than the placebo group
HIV-1 RNA AUC versus placebo ([1]; subjects who remained off ART at Week 52): lower in the Vacc-4x group than in the placebo group
viral load (VL) set point versus placebo and versus historic preART values ([1]; with rhuGM-CSF (Leukine) as adjuvant): significant reduction
immunogenicity, T-cell proliferative responses ([1]; with rhuGM-CSF as adjuvant): immunogenic, inducing proliferative responses in both CD4 and CD8 T-cells
adverse events possibly/probably related to the study treatment (HIV positive subjects; 26 subjects): 60
patients reporting swelling related to the immunization (HIV positive subjects; 26 subjects): Five
related adverse events that were mild (HIV positive subjects; 26 subjects): 98%
serious adverse events (HIV positive subjects; 26 subjects): No patient reported serious adverse events
subjects reporting AEs (HIV positive subjects; [2]): 23 subjects
total AEs reported (HIV positive subjects; [2]): 74 AEs
duration of T cell responses induced by Vacc-4x peptides (HIV positive subjects; before re-boost): up to seven
effect of re-boosting on CD4, CD8 and viral load (HIV positive subjects; two booster administrations): no negative effect
